Consider ten molecules from US20250327097A1, “ORGANISMS PRODUCING LESS CROTONIC ACID” (Global Bioenergies, priority 2021, published 2025).

B1: I283T-N285P-E286A-N287T-Q290E-S322T-N388M-K394R-C430A-L432F-L434W-S436N-dG462 (protein)
chain: MFLKSLREQINLLKRQGDLRIINRPVDSYLEAAAIIRRSTETKAPVPLMTNIKGYPGCSIVGGLAALSSNPEYPLSRVAMSLGLSTTASAQSIVQYLIDGLKKTPYLPVEIDSNSAPCKQNILRGEDASLAHFPIPQVHQHDGNRYVNTWGVFIVESPDGQWCNWSIQRVQYLNDRQMIALVFPSQHISDIWEEWVKIGKPMPYALVQGCEPIVPYIAGLPLLERNVNEAEYIGALYGKGIEVVKCETHDLRVPASSEVVIEGYFAITREGVEGPFGEFAGYTPPATSLEPILSITAISWQDDPIWPVVAEGKPVDEYHTCTGIGDAAAIQNVLLTANLPVSFVWVPLYSACHLMIVSINRHWRQTHPDLTSEQLTKKVGDVIHQTRMSIKLPRIVVLDDDVDPADTESLLWALATRIHPERKRYFYESAIFPWLNCYSEEERHNRKGKRVIIDALLPENHGAISSFDYAYPDDIKQRVLMHWETDFSHD
B2: I283T-N285P-N287T-Q290E-S322T-R361K-N388M-K394R-C430A-L432F-L434W-S436N-dG462 (protein)
chain: MFLKSLREQINLLKRQGDLRIINRPVDSYLEAAAIIRRSTETKAPVPLMTNIKGYPGCSIVGGLAALSSNPEYPLSRVAMSLGLSTTASAQSIVQYLIDGLKKTPYLPVEIDSNSAPCKQNILRGEDASLAHFPIPQVHQHDGNRYVNTWGVFIVESPDGQWCNWSIQRVQYLNDRQMIALVFPSQHISDIWEEWVKIGKPMPYALVQGCEPIVPYIAGLPLLERNVNEAEYIGALYGKGIEVVKCETHDLRVPASSEVVIEGYFAITREGVEGPFGEFAGYTPPETSLEPILSITAISWQDDPIWPVVAEGKPVDEYHTCTGIGDAAAIQNVLLTANLPVSFVWVPLYSACHLMIVSINKHWRQTHPDLTSEQLTKKVGDVIHQTRMSIKLPRIVVLDDDVDPADTESLLWALATRIHPERKRYFYESAIFPWLNCYSEEERHNRKGKRVIIDALLPENHGAISSFDYAYPDDIKQRVLMHWETDFSHD
B3: I283T-N285P-N287T-Q290E-S322T-N388M-K394R-H419P-C430A-L432F-L434W-S436N-dG462 (protein)
chain: MFLKSLREQINLLKRQGDLRIINRPVDSYLEAAAIIRRSTETKAPVPLMTNIKGYPGCSIVGGLAALSSNPEYPLSRVAMSLGLSTTASAQSIVQYLIDGLKKTPYLPVEIDSNSAPCKQNILRGEDASLAHFPIPQVHQHDGNRYVNTWGVFIVESPDGQWCNWSIQRVQYLNDRQMIALVFPSQHISDIWEEWVKIGKPMPYALVQGCEPIVPYIAGLPLLERNVNEAEYIGALYGKGIEVVKCETHDLRVPASSEVVIEGYFAITREGVEGPFGEFAGYTPPETSLEPILSITAISWQDDPIWPVVAEGKPVDEYHTCTGIGDAAAIQNVLLTANLPVSFVWVPLYSACHLMIVSINRHWRQTHPDLTSEQLTKKVGDVIHQTRMSIKLPRIVVLDDDVDPADTESLLWALATRIPPERKRYFYESAIFPWLNCYSEEERHNRKGKRVIIDALLPENHGAISSFDYAYPDDIKQRVLMHWETDFSHD
B4: I283T-N285P-N287T-Q290E-S322T-N388M-K394R-E421W-C430A-L432F-L434W-S436N-dG462 (protein)
chain: MFLKSLREQINLLKRQGDLRIINRPVDSYLEAAAIIRRSTETKAPVPLMTNIKGYPGCSIVGGLAALSSNPEYPLSRVAMSLGLSTTASAQSIVQYLIDGLKKTPYLPVEIDSNSAPCKQNILRGEDASLAHFPIPQVHQHDGNRYVNTWGVFIVESPDGQWCNWSIQRVQYLNDRQMIALVFPSQHISDIWEEWVKIGKPMPYALVQGCEPIVPYIAGLPLLERNVNEAEYIGALYGKGIEVVKCETHDLRVPASSEVVIEGYFAITREGVEGPFGEFAGYTPPETSLEPILSITAISWQDDPIWPVVAEGKPVDEYHTCTGIGDAAAIQNVLLTANLPVSFVWVPLYSACHLMIVSINRHWRQTHPDLTSEQLTKKVGDVIHQTRMSIKLPRIVVLDDDVDPADTESLLWALATRIHPWRKRYFYESAIFPWLNCYSEEERHNRKGKRVIIDALLPENHGAISSFDYAYPDDIKQRVLMHWETDFSHD
B5: I283T-N285P-N287T-Q290E-S322T-M355T-N388M-K394R-C430A-L432F-L434W-S436N-dG462 (protein)
chain: MFLKSLREQINLLKRQGDLRIINRPVDSYLEAAAIIRRSTETKAPVPLMTNIKGYPGCSIVGGLAALSSNPEYPLSRVAMSLGLSTTASAQSIVQYLIDGLKKTPYLPVEIDSNSAPCKQNILRGEDASLAHFPIPQVHQHDGNRYVNTWGVFIVESPDGQWCNWSIQRVQYLNDRQMIALVFPSQHISDIWEEWVKIGKPMPYALVQGCEPIVPYIAGLPLLERNVNEAEYIGALYGKGIEVVKCETHDLRVPASSEVVIEGYFAITREGVEGPFGEFAGYTPPETSLEPILSITAISWQDDPIWPVVAEGKPVDEYHTCTGIGDAAAIQNVLLTANLPVSFVWVPLYSACHLTIVSINRHWRQTHPDLTSEQLTKKVGDVIHQTRMSIKLPRIVVLDDDVDPADTESLLWALATRIHPERKRYFYESAIFPWLNCYSEEERHNRKGKRVIIDALLPENHGAISSFDYAYPDDIKQRVLMHWETDFSHD
B6: N287V-N388M-K394R-C430N-L432F-L434W-S436N (protein)
chain: MFLKSLREQINLLKRQGDLRIINRPVDSYLEAAAIIRRSTETKAPVPLMTNIKGYPGCSIVGGLAALSSNPEYPLSRVAMSLGLSTTASAQSIVQYLIDGLKKTPYLPVEIDSNSAPCKQNILRGEDASLAHFPIPQVHQHDGNRYVNTWGVFIVESPDGQWCNWSIQRVQYLNDRQMIALVFPSQHISDIWEEWVKIGKPMPYALVQGCEPIVPYIAGLPLLERNVNEAEYIGALYGKGIEVVKCETHDLRVPASSEVVIEGYFAITREGVEGPFGEFAGYIPNEVSLQPILSITAISWQDDPIWPVVAEGKPVDEYHTCSGIGDAAAIQNVLLTANLPVSFVWVPLYSACHLMIVSINRHWRQTHPDLTSEQLTKKVGDVIHQTRMSIKLPRIVVLDDDVDPADTESLLWALATRIHPERKRYFYESNIFPWLNCYSEEERHNRKGKRVIIDALLPENHGAISSFDYAYPDDIKQRVLMHWETDFSHD
B7: I283T-N285P-N287T-Q290E-S322T-N388M-K394H-C430A-L432F-L434W-S436N-dG462 (protein)
chain: MFLKSLREQINLLKRQGDLRIINRPVDSYLEAAAIIRRSTETKAPVPLMTNIKGYPGCSIVGGLAALSSNPEYPLSRVAMSLGLSTTASAQSIVQYLIDGLKKTPYLPVEIDSNSAPCKQNILRGEDASLAHFPIPQVHQHDGNRYVNTWGVFIVESPDGQWCNWSIQRVQYLNDRQMIALVFPSQHISDIWEEWVKIGKPMPYALVQGCEPIVPYIAGLPLLERNVNEAEYIGALYGKGIEVVKCETHDLRVPASSEVVIEGYFAITREGVEGPFGEFAGYTPPETSLEPILSITAISWQDDPIWPVVAEGKPVDEYHTCTGIGDAAAIQNVLLTANLPVSFVWVPLYSACHLMIVSINRHWRQTHPDLTSEQLTKKVGDVIHQTRMSIKLPHIVVLDDDVDPADTESLLWALATRIHPERKRYFYESAIFPWLNCYSEEERHNRKGKRVIIDALLPENHGAISSFDYAYPDDIKQRVLMHWETDFSHD
B8: I283T-N285P-N287T-Q290E-S322T-N388S-K394R-C430A-L432F-L434W-S436N-dG462 (protein)
chain: MFLKSLREQINLLKRQGDLRIINRPVDSYLEAAAIIRRSTETKAPVPLMTNIKGYPGCSIVGGLAALSSNPEYPLSRVAMSLGLSTTASAQSIVQYLIDGLKKTPYLPVEIDSNSAPCKQNILRGEDASLAHFPIPQVHQHDGNRYVNTWGVFIVESPDGQWCNWSIQRVQYLNDRQMIALVFPSQHISDIWEEWVKIGKPMPYALVQGCEPIVPYIAGLPLLERNVNEAEYIGALYGKGIEVVKCETHDLRVPASSEVVIEGYFAITREGVEGPFGEFAGYTPPETSLEPILSITAISWQDDPIWPVVAEGKPVDEYHTCTGIGDAAAIQNVLLTANLPVSFVWVPLYSACHLMIVSINRHWRQTHPDLTSEQLTKKVGDVIHQTRSSIKLPRIVVLDDDVDPADTESLLWALATRIHPERKRYFYESAIFPWLNCYSEEERHNRKGKRVIIDALLPENHGAISSFDYAYPDDIKQRVLMHWETDFSHD
B9: I283T-N285P-N287T-Q290E-S322T-M355V-N388M-K394R-C430A-L432F-L434W-S436N-dG462 (protein)
chain: MFLKSLREQINLLKRQGDLRIINRPVDSYLEAAAIIRRSTETKAPVPLMTNIKGYPGCSIVGGLAALSSNPEYPLSRVAMSLGLSTTASAQSIVQYLIDGLKKTPYLPVEIDSNSAPCKQNILRGEDASLAHFPIPQVHQHDGNRYVNTWGVFIVESPDGQWCNWSIQRVQYLNDRQMIALVFPSQHISDIWEEWVKIGKPMPYALVQGCEPIVPYIAGLPLLERNVNEAEYIGALYGKGIEVVKCETHDLRVPASSEVVIEGYFAITREGVEGPFGEFAGYTPPETSLEPILSITAISWQDDPIWPVVAEGKPVDEYHTCTGIGDAAAIQNVLLTANLPVSFVWVPLYSACHLVIVSINRHWRQTHPDLTSEQLTKKVGDVIHQTRMSIKLPRIVVLDDDVDPADTESLLWALATRIHPERKRYFYESAIFPWLNCYSEEERHNRKGKRVIIDALLPENHGAISSFDYAYPDDIKQRVLMHWETDFSHD
B10: I283T-N285P-N287T-Q290E-S322T-M355C-N388M-K394R-C430A-L432F-L434W-S436N-dG462 (protein)
chain: MFLKSLREQINLLKRQGDLRIINRPVDSYLEAAAIIRRSTETKAPVPLMTNIKGYPGCSIVGGLAALSSNPEYPLSRVAMSLGLSTTASAQSIVQYLIDGLKKTPYLPVEIDSNSAPCKQNILRGEDASLAHFPIPQVHQHDGNRYVNTWGVFIVESPDGQWCNWSIQRVQYLNDRQMIALVFPSQHISDIWEEWVKIGKPMPYALVQGCEPIVPYIAGLPLLERNVNEAEYIGALYGKGIEVVKCETHDLRVPASSEVVIEGYFAITREGVEGPFGEFAGYTPPETSLEPILSITAISWQDDPIWPVVAEGKPVDEYHTCTGIGDAAAIQNVLLTANLPVSFVWVPLYSACHLCIVSINRHWRQTHPDLTSEQLTKKVGDVIHQTRMSIKLPRIVVLDDDVDPADTESLLWALATRIHPERKRYFYESAIFPWLNCYSEEERHNRKGKRVIIDALLPENHGAISSFDYAYPDDIKQRVLMHWETDFSHD

This assay relates to 3-methylcrotonic acid. The assay is classed as biochemical, Yersinia frederiksenii. Details: key: “+” representing a low increase in activity; “++++” representing a high increase in activity.
In the case of B1, the “Activity relative to WT” value is recorded as “++++”.

Take B2: the “Activity relative to WT” value was “++++”.

As for B3, the “Activity relative to WT” value is on record as “++++”.

Turning to B4, the “Activity relative to WT” value was “++++”.

B5: the “Activity relative to WT” value is “++++”.

B6: the “Activity relative to WT” value is given as “+”.

On to B7, for which the “Activity relative to WT” value is reported as “++++”.

Consider B8, for which the “Activity relative to WT” value is recorded as “++++”.

For the molecule B9, the “Activity relative to WT” value is “++++”.

For the molecule B10, the “Activity relative to WT” value is given as “++++”.
